Results: publication doi:10.1101/2025.04.16.649061

How the values were obtained:
Test in all cases: BLI
[1] = target: Hopsarin D (Hoplocephalus stephensii)
M17 fXa variant (human) = target: M17 fXa variant (human)
[2] = target: fXa L1 loop-swap chimera (human)
[3] = target: fXa L123 loop-swap chimera (human)
[4] = target: fXa L123/EGF2 chimera (M45) (human | Hoplocephalus stephensii)
[5] = target: fXa L2 loop-swap chimera (human)
[6] = target: fXa L23 chimera with the full EGF2 domain swap (human | Hoplocephalus stephensii)
[7] = target: fXa L23 loop-swap chimera (human)
[8] = target: fXa L3 loop-swap chimera (human)
[9] = target: fXa SP chimera (entire HopD SP domain swapped into human fXa) (human | Hoplocephalus stephensii)
[10] = target: fXa variant M13 (7 EGF2 and 6 SP mutations) (human)
[11] = target: fXa variant M7 (7 EGF2 mutations) (human)
[12] = target: wild-type human factor Xa (human)

Substance: B-domainless human fV (from UniProt P12259 29-2224) (natural protein)
- Kd [1]: 18 nM
- Kd (M17 fXa variant (human)): 17 nM
- Kd [2]: 532 nM
- Kd [3]: 608 nM
- Kd [4]: 43 nM
- Kd [5]: 1130 nM
- Kd [6]: 369 nM
- Kd [7]: 1120 nM
- Kd [8]: 905 nM
- Kd [9]: 400 nM
- Kd [10]: 48 nM
- Kd [11]: 78 nM
- Kd [12]: 1380 nM
